# According to patent US20210093730A1, “BIOMARKERS FOR ANTIBODY-DRUG CONJUGATE MONOTHERAPY OR COMBINATION THERAPY” (Immunomedics, Inc., priority 2019, published 2021):
# “And” between values parts separate entries of the source, which are not always exact repeats. Equal values may be shown once. “Also recorded” adds a separate entry of the source. Read-outs that look alike come from different tables or passages of the source.
# What was measured:
# [1] = system: metastatic triple-negative breast cancer (TNBC); assay: Phase I/II clinical trial (NCT01631552) of sacituzumab govitecan in relapsed/refractory metastatic TNBC; format: in vivo, human
# Method: Patients with relapsed/refractory TNBC who had previously failed at at least one prior line of therapy were enrolled in a single-arm, multicenter trial (Bardia et al., 2019, N Engl J Med 380:741-51). The present study reports on 108 patients who had failed at least two prior lines of therapy (median three prior therapies) (Bardia et al., 2019, N Engl J Med 380:741-51). […] Of the 108 patients, 107 were female and 1 was male, with a median age of 55. […] Tumor staging was performed by computed tomography (CT) and MRI at baseline, followed up at 8 week intervals from the start of treatment until disease progression.
# [2] = Immunogenicity: serum antibody responses to sacituzumab govitecan, the IgG and SN-38 by ELISA in mSCLC patients; format: in vivo, human; conditions: up to 63 doses / up to 22 months of treatment
# Method: Positivity required at least 10% of the tumor cells to be stained, with an intensity scored as 1+ (weak), 2+ (moderate), and 3+ (strong). […] Assay sensitivity is 50 ng/mL for the ADC and the IgG, and 170 ng/mL for anti-SN-38 antibody.
# [3] = in vivo
# [4] = Pharmacokinetics in patient serum: ELISA for IgG and intact conjugate, HPLC for SN-38; format: in vivo, human
# Method: SN-38 was measured by HPLC.
# [5] = system: non-small cell lung cancer (NSCLC); conditions: cited from earlier work
# [6] = system: metastatic urothelial cancer; assay: Further study of sacituzumab govitecan in metastatic urothelial cancer (mUC), 32 pts enrolled; format: in vivo, human
# Text: Response-evaluable pts received ≥2 doses, and had ≥1 post-baseline response assessment.
# [7] = system: metastatic small-cell lung cancer; conditions: cited from earlier work
# [8] = system: diverse metastatic solid cancers
# Text: Patients were refractory/relapsed after standard treatment regimens for metastatic cancer.
# [9] = system: platinum-resistant urothelial carcinoma; conditions: 6 patients; cited from earlier work
# [10] = 36 patients with objective response
# [11] = any grade, 108 patients, 10 mg/kg
# [12] = 48 assessable pts excluding PDC
# [13] = esophageal cancer, 4 assessable patients
substance,measurement,setting,value
sacituzumab govitecan,response rate among patients who had failed previous checkpoint inhibitor therapy,[1]; 10 mg/kg,44%
same,median duration of response,[1]; [10],7.7 months
same,median time to response,[1]; [10],2.0 months
same,"anemia, grade 3","[1]; 108 patients, 10 mg/kg",11%
same,complete responses (CR),"[1]; 108 patients, 10 mg/kg",2.8%
same,"decreased white blood cell count, grade 4","[1]; 108 patients, 10 mg/kg",3%
same,"diarrhea, grade 3","[1]; 108 patients, 10 mg/kg",8%
same,"fatigue, grade 3","[1]; 108 patients, 10 mg/kg",8%
same,"hyperglycemia, grade 4","[1]; 108 patients, 10 mg/kg",1%
same,median overall survival,"[1]; 108 patients, 10 mg/kg",13.0 months
same,median progression-free survival,"[1]; 108 patients, 10 mg/kg",5.5 months
same,"nausea, grade 3","[1]; 108 patients, 10 mg/kg",6%
same,"neutropenia, grade 3","[1]; 108 patients, 10 mg/kg",26%
same,"neutropenia, grade 4","[1]; 108 patients, 10 mg/kg",16%
same,"vomiting, grade 3","[1]; 108 patients, 10 mg/kg",6%
same,response rate (CR+PR),"[1]; 108 patients, >=2 prior lines, 10 mg/kg, local assessment",33.3%
same,"anemia, % of patients",[1]; [11],50%
same,"diarrhea, % of patients",[1]; [11],62%
same,"fatigue, % of patients",[1]; [11],55%
same,"nausea, % of patients",[1]; [11],67%
same,"neutropenia, % of patients",[1]; [11],64%
same,"vomiting, % of patients",[1]; [11],49%
same,patients with long-term responses of more than 12 months,[1]; as of data cutoff,6 patients
same,estimated probability that a patient would exhibit a response,[1]; at 6 months,59.7%
same,estimated probability that a patient would exhibit a response,[1]; at 12 months,27.0%
same,patients who discontinued treatment due to adverse events,[1]; of 108 patients,Three
same,"immunogenicity (antibodies to sacituzumab govitecan, hRS7 antibody or SN-38)",[2],not immunogenic; also recorded: No neutralizing antibodies
same,SN-38 released daily,[3],50%
same,clearance of intact conjugate compared with the IgG,[4]; ELISA,cleared more quickly than the IgG
same,SN-38 in the serum bound to the IgG,"[4]; HPLC, Unbound and TOTAL, non-glucuronidated form",> 95%
same,clearance of the conjugate from the serum,[4]; patients,≤ 3 days
same,clinical benefit rate,[5]; 47 patients,43%
same,ORR,"[5]; 47 response assessable patients, median three prior therapies",19%
same,median OS,"[5]; human, in vivo",9.5 months
same,median PFS,"[5]; human, in vivo",5.2 months
same,"ORR, pts with 1 line of prior chemotherapy",[6]; 7/13,53.8%
same,ORR,"[6]; 25 assessable pts, 8 or 10 mg/kg days 1 and 8 every 21 days",36%
same,grade 3 hypophosphatemia,[6]; 25 pts,8%
same,grade 4 neutropenia,[6]; 25 pts,16%
same,duration of response for CR/PR pts,[6]; 95% CI 4.1-12.9,5.1 mos
same,median PFS,"[6]; all patients, 95% CI 4.9-10.7",7.2 mos
same,"ORR, pts with 2 to 5 prior therapy lines",[6]; in vivo,16.7%
same,duration of grade 4 neutropenia,[6]; in vivo,< 7 days
same,PR among pts with progression after prior IO,[6]; of 4 pts,1 patients
same,complete responses (CR),[6]; of 25 pts,1 patients
same,partial responses (PR),[6]; of 25 pts,8 patients
same,pts with stable disease >4 mos,[6]; of the SD pts,10/11
same,ORR,"[7]; 53 mSCLC patients (Gray et al., 2017)",14%
same,median OS,"[7]; Gray et al., 2017",7.5 months
same,median PFS,"[7]; Gray et al., 2017",3.7 months
same,median response duration,"[7]; Gray et al., 2017",5.7 months
same,patients with tumor shrinkage from baseline,"[7]; Gray et al., 2017",Sixty
same,"partial response (PR), % of patients",[8]; [12],15%
same,"stable disease (SD), % of patients",[8]; [12],56%
same,"disease response, % of patients","[8]; 48 assessable pts excluding PDC, printed 38 pts",79%
same,maximum reduction in target lesions,"[8]; CRC case, after 10 months of treatment",65%
same,CEA after treatment,"[8]; CRC case, decrease from 781 ng/mL",26.5 ng/mL
same,reduction in target lesions at first CT assessment,"[8]; CRC case, starting dose 8 mg/kg",37%
same,total response [PR+SD],"[8]; CRC, 12/18",67%
same,"PD, patients","[8]; CRC, 18 assessable patients",6 patients
same,"PR, patients","[8]; CRC, 18 assessable patients",1 patients
same,primary target lesion size at first CT,"[8]; NSCLC case, 5.6 cm at start, after 6th dose",3.2 cm
same,total response [PR+SD],"[8]; NSCLC, 4/5",80%
same,"PD, patients","[8]; NSCLC, 5 assessable patients",1 patients
same,"PR, patients","[8]; NSCLC, 5 assessable patients",1 patients
same,reduction in target lesions,"[8]; SCLC case, 12 mg/kg reduced to 6.8 mg/kg, after two months",38%
same,total response [PR+SD],"[8]; SCLC, 2/4",50%
same,"PD, patients","[8]; SCLC, 4 assessable patients",2 patients
same,"PR, patients","[8]; SCLC, 4 assessable patients",2 patients
same,total response [PR+SD],"[8]; TNBC, 6/8",75%
same,"PD (progressive disease), patients","[8]; TNBC, 8 assessable patients",2 patients
same,"PR (partial response), patients","[8]; TNBC, 8 assessable patients",2 patients
same,total response [PR+SD],"[8]; all, 34/48",71%
same,"PD, patients","[8]; all, 48 assessable patients",14 patients
same,"PR, patients","[8]; all, 48 assessable patients",Seven
same,"PR, patients","[8]; all, 48 assessable patients, listed as hRS7-SN-38",7 patients
same,total response [PR+SD],"[8]; esophageal cancer, 3/4",75%
same,"PD, patients",[8]; [13],1 patients
same,"PR, patients",[8]; [13],1 patients
same,"Abdominal pain, Grade 3",[8]; in vivo,0
same,"Abdominal pain, Grade 4",[8]; in vivo,0
same,"Abdominal pain, TOTAL",[8]; in vivo,11%
same,"Alopecia, TOTAL",[8]; in vivo,40%
same,"Anemia, Grade 4",[8]; in vivo,0
same,"Anemia, TOTAL",[8]; in vivo,13%
same,"Deep vein thrombosis, Grade 3",[8]; in vivo,1 (2%)
same,"Deep vein thrombosis, Grade 4",[8]; in vivo,0
same,"Deep vein thrombosis, TOTAL",[8]; in vivo,2%
same,"Diarrhea, Grade 4",[8]; in vivo,0
same,"Diarrhea, TOTAL",[8]; in vivo,47%
same,"Dysgeusia, Grade 3",[8]; in vivo,0
same,"Dysgeusia, Grade 4",[8]; in vivo,0
same,"Dysgeusia, TOTAL",[8]; in vivo,15%
same,"Fatigue, Grade 4",[8]; in vivo,0
same,"Fatigue, TOTAL",[8]; in vivo,55%
same,"Hypokalemia, Grade 3",[8]; in vivo,1 (2%)
same,"Hypokalemia, Grade 4",[8]; in vivo,0
same,"Hypokalemia, TOTAL",[8]; in vivo,11%
same,"Nausea, Grade 4",[8]; in vivo,0
same,"Nausea, TOTAL",[8]; in vivo,53%
same,"Neutropenia, TOTAL",[8]; in vivo,43%
same,"Pyrexia, Grade 3",[8]; in vivo,0
same,"Pyrexia, Grade 4",[8]; in vivo,0
same,"Pyrexia, TOTAL",[8]; in vivo,13%
same,"Vomiting, Grade 4",[8]; in vivo,0
same,"Vomiting, TOTAL",[8]; in vivo,32%
same,"WBC Decrease, Grade 3",[8]; in vivo,1 (2%)
same,"WBC Decrease, Grade 4",[8]; in vivo,0
same,"WBC Decrease, TOTAL",[8]; in vivo,6%
same,alopecia,[8]; in vivo,40%
same,"anemia, grade 3",[8]; in vivo,2 (4%)
same,anti-hRS7 or anti-SN-38 antibodies,[8]; in vivo,No anti-hRS7 or anti-SN-38 antibodies were detected
same,diarrhea,[8]; in vivo,47%
same,diarrhea >=G3,[8]; in vivo,9%
same,"diarrhea, grade 3",[8]; in vivo,4 (9%)
same,fatigue,[8]; in vivo,55%
same,fatigue >=G3,[8]; in vivo,9%
same,"fatigue, grade 3",[8]; in vivo,4 (9%)
same,nausea,[8]; in vivo,53%
same,nausea >=G3,[8]; in vivo,0%
same,"nausea, grade 3",[8]; in vivo,0
same,neutropenia >=G3,[8]; in vivo,28%
same,neutropenia G4,[8]; in vivo,4%
same,"neutropenia, grade 3",[8]; in vivo,11 (24%)
same,"neutropenia, grade 4",[8]; in vivo,2 (4%)
same,vomiting,[8]; in vivo,32%
same,vomiting >=G3,[8]; in vivo,2%
same,"vomiting, grade 3",[8]; in vivo,1 (2%)
same,"median time to progression (TTP), PDC pts","[8]; pancreatic cancer, 8 wks in last prior therapy",12.7 wks and 11.9 wks
same,"TTP, remaining 48 pts",[8]; range 6.0 to 51.4 wks,≥ 12.6 wks
same,clinically significant response,[9],50%
